Paper PMC9287160 (2022)

Assays:
Assay in all cases: BLI
[1] = biological target: T1, human integrin αMβ2 headpiece fragment (human, UniProt P11215 17-1152; P05107 23-482)
[2] = biological target: T2, recombinant human αMβ2 αI domain (human)
T2 chain: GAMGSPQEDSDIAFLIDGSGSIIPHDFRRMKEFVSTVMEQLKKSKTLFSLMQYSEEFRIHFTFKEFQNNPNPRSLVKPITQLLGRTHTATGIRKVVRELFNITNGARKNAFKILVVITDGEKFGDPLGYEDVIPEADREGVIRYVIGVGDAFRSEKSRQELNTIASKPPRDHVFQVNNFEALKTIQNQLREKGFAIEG

[3] = biological target: T1, human integrin αMβ2 headpiece fragment; remark: listed apart in the source
[4] = biological target: T2, recombinant human αMβ2 αI domain

B1: biotinylated avi-tagged hCD11bNb1 (VHH)
VHH: QVQLVETGGGLVQAGGSLRLSCAASGNINSFNAMGWFRQAPGKQRELVAAITFGGRTNYADSVKGRFTISRDNTKGSVYLQMNSLKPEDTAVYYCAASENNLLTGVWHYWGRGTQVTVSS
modifications: biotin
- Kd [1]: 0.85 nM
- Kd [2]: 6.6 nM
- koff [3]: 0.00047 s⁻¹
- koff [4]: 0.0032 s⁻¹
